Columns and labels:
Format in all cases: cell-based
[1] = system: RAJI cells; test: JNG assay, co-culture with RAJI cells; settings: JNG cells expressing construct, co-culture with Raji
In short: (§1)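 Read-out is NFAT-driven GFP measured by flow cytometry after ~4–18 h co-culture of SAR-expressing JNG cells with target cells (E:T about 1:2). SARs were introduced by lentiviral spinfection and selected with puromycin or blasticidin when possible; scores (+/- to 5+ ≈ 5–50% GFP+) are relative to parental JNG cells.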

[2] = system: RAJI-CD19-KO cells; test: JNG assay, co-culture with RAJI-CD19-KO cells; settings: co-culture with Raji-CD19-KO
In short: as §1

[3] = system: RS;411; test: JNG assay, co-culture with RS;411 cells; settings: co-culture with RS411
In short: as §1

Row | Molecule | NFAT-GFP ASSAY: Raji [1] | NFAT-GFP ASSAY: Raji-CD19-KO [2] | NFAT-GFP ASSAY: RS411 [3]
1 | 22108 (protein) MALPVTALLLPLALLLHAARPQVQLVESGGGLVQPGGSLRLSCAASGFTFTNHAMSWVRQAPGKGLELVSSISGNGRTTYYADSVKGRFTISRDISKNTLDLQMNSLRAEDTAVYYCAKDGGETLVDSRGQGTLVTVSSGTGGGGSGGGGSGGGGSEFDIQMTQSPSSLSASVGDRVTITCKASDHINNWLAWYQQKPGQAPKLLIYGATTLETGVPSRFSGSGSGTDYTLTISSLQPEDFATYYCQQSWNTPWTFGQGTKLEIKRLEDLKNVFPPEVAVFEPSEAEISHTQKATLVCLATGFYPDHVELSWWVNGKEVHSGVCTDPQPLKEQPALNDSRYCLSSRLRVSATFWQNPRNHFRCQVQFYGLSENDEWTQDRAKPVTQIVSAEAWGRADCGFTSESYQQGVLSATILYEILLGKATLYAVLVSALVLMAMVKRKDSRGRAKRSGSGATNFSLLKQAGDVEENPGPTSMDWIWRILFLVGAATGAHSFEQVQLQQPGAELVKPGASVKMSCKASGYAFSSYWINWMKQKPGQGLEWIGQIYPGDGDTNYNGKFKGRATLTADTSSSTAYMQLSSLTSEDSAVYFCARSITTVVGCAMDYWGQGTSVTVSSTRIQNPDPAVYQLRDSKSSDKSVCLFTDFDSQTNVSQSKDSDVYITDKCVLDMRSMDFKSNSAVAWSNKSDFACANAFNNSIIPEDTFFPSPESSCDVKLVEKSFETDTNLNFQNLSVIGFRILLLKVAGFNLLMTLRLWSSRAKRSGSGVKQTLNFDLLKLAGDVESNPGPSRGHMTEYKPTVRLATRDDVPRAVRTLAAAFADYPATRHTVDPDRHIERVTELQELFLTRVGLDIGKVWVADDGAAVAVWTTPESVEAGAVFAEIGPRMAELSGSRLAAQQQMEGLLAPHRPKEPAWFLATVGVSPDHQGKGLGSAVVLPGVEAAERAGVPAFLETSAPRNLPFYERLGFTVTADVEVPEGPRTWCMTRKPGA | 4+ (refer to approximately 5%, 10%, 20%, 30%, 40% and 50% GFP positive cells) | 3+ (refer to approximately 5%, 10%, 20%, 30%, 40% and 50% GFP positive cells) | 5+ (refer to approximately 5%, 10%, 20%, 30%, 40% and 50% GFP positive cells)
2 | 22107 (protein) MALPVTALLLPLALLLHAARPDIQMTQSPSSLSASVGDRVTITCKASDHINNWLAWYQQKPGQAPKLLIYGATTLETGVPSRFSGSGSGTDYTLTISSLQPEDFATYYCQQSWNTPWTFGQGTKLEIKRLEIQNPDPAVYQLRDSKSSDKSVCLFTDFDSQTNVSQSKDSDVYITDKCVLDMRSMDFKSNSAVAWSNKSDFACANAFNNSIIPEDTFFPSSDVPCDVKLVEKSFETDTNLNFQNLSVIGFRILLLKVAGFNLLMTLRLWSSRAKRSGSGVKQTLNFDLLKLAGDVESNPGPTSATMDWIWRILFLVGAATGAHSGPQVQLQESGGGLAQAGGSLRLSCAASGRTFSMGWFRQAPGKEREFVAAITYSGGSPYYASSVRGRFTISRDNAKNTVYLQMNSLKPEDTAVYYCAANPTYGSDWNAENWGQGTQVTVSSGSGGGGSGGGGSGGGGSFEQVQLQQPGAELVKPGASVKMSCKASGYAFSSYWINWMKQKPGQGLEWIGQIYPGDGDTNYNGKFKGRATLTADTSSSTAYMQLSSLTSEDSAVYFCARSITTVVGCAMDYWGQGTSVTVSSTREDLKNVFPPEVAVFEPSKAEIAHTQKATLVCLATGFYPDHVELSWWVNGKEVHSGVCTDPQPLKEQPALNDSRYCLSSRLRVSATFWQNPRNHFRCQVQFYGLSENDEWTQDRAKPVTQIVSAEAWGRADCGITSASYHQGVLSATILYEILLGKATLYAVLVSALVLMAMVKRKDSRGRAKRSGSGATNFSLLKQAGDVEENPGPSRGHMTEYKPTVRLATRDDVPRAVRTLAAAFADYPATRHTVDPDRHIERVTELQELFLTRVGLDIGKVWVADDGAAVAVWTTPESVEAGAVFAEIGPRMAELSGSRLAAQQQMEGLLAPHRPKEPAWFLATVGVSPDHQGKGLGSAVVLPGVEAAERAGVPAFLETSAPRNLPFYERLGFTVTADVEVPEGPRTWCMTRKPGA | 4+ (refer to approximately 5%, 10%, 20%, 30%, 40% and 50% GFP positive cells) | 5+ (refer to approximately 5%, 10%, 20%, 30%, 40% and 50% GFP positive cells) | + (refer to approximately 5%, 10%, 20%, 30%, 40% and 50% GFP positive cells)

Source: patent US20230212319A1, “NOVEL ANTIGEN BINDING DOMAINS AND SYNTHETIC ANTIGEN RECEPTORS INCORPORATING THE SAME” (University of Southern California, priority 2020, published 2023)
